Results from patent publication US20050089970A1.

target: CCR5 (UniProt P51681); assay: cell-based or functional assay
UniProt P51681, sequence (P51681 whole entry): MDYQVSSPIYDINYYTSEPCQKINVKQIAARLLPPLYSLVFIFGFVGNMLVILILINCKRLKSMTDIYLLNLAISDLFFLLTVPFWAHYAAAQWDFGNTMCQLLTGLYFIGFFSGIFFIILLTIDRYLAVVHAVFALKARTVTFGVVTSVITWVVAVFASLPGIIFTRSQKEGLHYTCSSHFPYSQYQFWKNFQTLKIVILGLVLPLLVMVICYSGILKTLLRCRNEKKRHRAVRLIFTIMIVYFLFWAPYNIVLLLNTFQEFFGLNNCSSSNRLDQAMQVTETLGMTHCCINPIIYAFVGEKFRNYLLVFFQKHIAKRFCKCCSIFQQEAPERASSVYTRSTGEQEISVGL

Row | Substance | Mean Relative Potency (IC50 of cell fusion inhibition relative to AOP-RANTES = 100) (relative to AOP-RANTES = 100) | percentage fusion inhibition at the lowest dilution [%] | Average infectivity IC50 (cell-free viral infection assay) [nM] | Cell-fusion result for comparison (IC50) [nM] | EC50, HeLa P4-CCR5/HeLa-Env-ADA cell fusion [nM]
1 | AOP-RANTES-K(palmitoyl)-G (from UniProt P13501 25-91) (ligand) | 45 |  |  |  | 
2 | NNY-P2Thz-Y3Chg-RANTES (4-68) (from UniProt P13501 25-91) (ligand) | 2 | > 50 |  |  | 
3 | NNY-P2Thz-Y3tButA-RANTES (4-68) (from UniProt P13501 25-91) (ligand) | 4 | > 50 |  |  | 
4 | NNY-P-Y3Chg-RANTES (4-68) (from UniProt P13501 25-91) (ligand) | 7 | > 50 | 0.012 | 0.026 | 
5 | NNY-P-Y3tbuA-RANTES (4-68) (from UniProt P13501 25-91) (ligand) | 7 | > 50 | 0.014 | 0.038 | 
6 | aminooxypentane-RANTES (2-68), CH3-(CH2)4-O-N=CH-CO-RANTES (2-68) (from UniProt P13501 25-91) (ligand) | 100 |  | 0.145 | 0.48 | 1.81
7 | n-nonanoyl-RANTES (2-68), CH3-(CH2)7-C(O)-RANTES (2-68) (from UniProt P13501 25-91) (ligand) |  |  | 0.024 | 0.097 | 0.323
